In article PMC8280106 (2021) one finds response data, which are given here for five variants.

To fix the notation:
B1: extracellular domain of CD147 (CD147^ECD) [human] / Trefoil factor 3 (TFF3), recombinant mature form (residues 22-80) [human] (parent complex)
chain 1: AAGTVFTTVEDLGSKILLTCSLNDSATEVTGHRWLKGGVVLKEDALPGQKTEFKVDSDDQWGEYSCVFLPEPMGTANIQLHGPPRVKAVKSSEHINEGETAMLVCKSESVPPVTDWAWYKITDSEDKALMNGSESRFFVSSSQGRSELHIENLNMEADPGQYRCNGTSSKGSDQAIITLRVRSH
chain 2: EEYVGLSANQCAVPAKDRVDCGYPHVTPKECNNRGCCFDSRIPGVPWCFKPLQEAECTF

This assay covers variants of B1. As to the kind of experiment: SPR (Biacore); value read at end of injection, ~120 s; concentrations not given; read off a plot.
For the variant chain 1 AAGTVFTTVEDLGSKILLTCSLNDSATEVTGHRWLKGGVVLKEDALPGQKTEFKVDSDDQWGEYSCVFLPEPMATANIQLHGPPRVKAVKSSEHINEGETAMLVCKSESVPPVTDWAWYKITDSEDKALMNGSESRFFVSSSQGRSELHIENLNMEADPGQYRCNGTSSKGSDQAIITLRVRSH [chain 1 G74A], the response was about 4.3 Ru.

For the variant chain 1 R33A, the response is about 2 Ru.

For chain 1 AAGTVFTTVEDLGSKILLTCSLNDSATEVTGHRWLKGGVVLKEDALPGQKTEFKVDSDDQWGEYSCVFLPEPMGTANIQLHGPPRVKAVKSSEHINEGETAMLVCKSESAPPVTDWAWYKITDSEDKALMNGSESRFFVSSSQGRSELHIENLNMEADPGQYRCNGTSSKGSDQAIITLRVRSH [chain 1 V110A], the response is about 4.7 Ru.

Take chain 1 AAGTVFTTVEDLGSKILLTCSLNDSATEVTGHRWLKGGVVLKEDALPGQKTEFKVDSDDQWGEYSCVFLPEPMGTANIQLHGPPRVKAVKSSEHINEGEAAMLVCKSESVPPVTDWAWYKITDSEDKALMNGSESRFFVSSSQGRSELHIENLNMEADPGQYRCNGTSSKGSDQAIITLRVRSH [chain 1 T100A]: the response was about 14 Ru.

For chain 1 AAGTVFTTVEDLGSKILLTCSLNDSATEVTGHRWLKGGVVLKEDALPGQKTEFKVDSDDQWGEYSCVFLPEPMGTANIQLHGPPRVKAVKSSEHINEGETAMLVCKSESVPPVTDWAWYKITDSEDKALMNGSESRFFVSSSQGASELHIENLNMEADPGQYRCNGTSSKGSDQAIITLRVRSH [chain 1 R145A], the response was about 8.7 Ru.
